# Assay results published in patent publication US12180485B2, “Repressible control of gene expression” (TRUSTEES OF BOSTON UNIVERSITY, priority 2020, dated 2024).
# Tested on: mCherry expression in HEK293 FT cells
# Test: Inducible split RfxCas13d (GIB, RAP, ABA, Dano, GRZ CID domains; NES/NLS variants) mCherry knockdown, leakiness and inducibility
# Type: cell-based
# Details: inducible polypeptide systems of Tables 18-22
# From the text: FIG. 6A-6C is a series of schematics and graphs showing that split RfxCas13d's reconstituted and functioned to knockdown mCherry expression in HEK293 FT cells FIG. 6A is a schematic showing split sites selected throughout RfxCas13d sequence. FIG. 6B is a bar graph showing mCherry expression under 4 conditions for gibberellin-inducible, rapalog-inducible, and abscisic acid-inducible inducible split Cas13d designs. In FIG. 6B and FIG. 6C, the left-right order of the bars for each split site is the same as the left-right order of the legend for each bar graph.
# FIG. 7A-7E is a series of schematics and graphs showing a functional and inducible split Cas13d design. FIG. 7A is a bar graph showing additional split sites selected in RfxCas13d and tested with GIB CID domains. […] In FIG. 7A and FIG. 7C, the left-right order of the bars for each split site is the same as the left-right order of the legend. FIG. 7B is a schematic showing the design to compartmentalize splits. Compartmentalizing moieties facilitates the reduction of leakiness. […] FIG. 7D is a schematic showing the experiment flow for testing reversibility of the inducible split Cas13d's.
# FIG. 8A-8B is a series of schematics and graphs showing that split RfxCas13d's reconstituted upon drug-induced dimerization and knocked down mCherry expression in HEK293 FT cells. FIG. 8A is a bar graph showing quantification of system performance. The left-right order of the bars for each split site is the same as the top-down order of the legend. […] System performance in leakiness score (left axis) and induced activity (right axis) by GIB, RAP, ABA, and Dano-inducible split Cas13d designs.
# FIG. 10A-10B is a series of schematics and graphs showing performance optimization through separating split Cas13d moieties in different cellular compartments. […] The left-right order of the bars for each bar graph is the same as the top-down order of the legend.
# FIG. 11 is a series of schematics and graphs showing the testing of reversed orientation (dark grey dots) of CID domains with respect to split Cas13d pieces against original orientations (light grey dots) designed for GIB, ABA, Dano, and GRZ inducible systems.
row,Molecule,performance in the tested conditions
1,SEQ ID NO: 392: PV1-Cas13 N507-L1-PYL-NLS-BGHpA (protein) MIEKKKSFAKGMGVKSTLVSGSKVYMTTFAEGSDARLEKIVEGDSIRSVNEGEAFSAEMADKNAGYKIGNAKFSHPKGYAVVANNPLYTGPVQQDMLGLKETLEKRYFGESADGNDNICIQVIHNILDIEKILAEYITNAAYAVNNISGLDKDIIGFGKFSTVYTYDEFKDPEHHRAAFNNNDKLINAIKAQYDEFDNFLDNPRLGYFGQAFFSKEGRNYIINYGNECYDILALLSGLRHWVVHNNEEESRISRTWLYNLDKNLDNEYISTLNYLYDRITNELTNSFSKNSAANVNYIAETLGINPAEFAEQYFRFSIMKEQKNLGFNITKLREVMLDRKDMSEIRKNHKVFDSIRTKVYTMMDFVIYRYYIEEDAKVAAANKSLPDNEKSLSEKDIFVINLRGSFNDDQKDALYYDEANRIWRKLENIMHNIKEFRGNKTREYKKKDAPRLPRILPAGRDVSAFSKLMYALTMFLDGKEINDLLTTLINKFDNIQSFLKVMPLIGVNSGGSGSGSSGGSGTAPTQDEFTQLSQSIAEFHTYQLGNGRCSSLLAQRIHAPPETVWSVVRRFDRPQIYKHFIKSCNVSEDFEMRVGCTRDVNVISGLPANTSRERLDLLDDDRRVTGFSITGGEHRLRNYKSVTTVHRFEKEEEEERIWTVVLESYVVDVPEGNSEEDTRLFADTVIRLNLQKLASITEAMNYPYDVPDYAPKKKRKV,highest performance
2,"SEQ ID NO: 769: inducible system polypeptide, probably Table 20 (GID-GAI) (protein) MIEKKKSFAKGMGVKSTLVSGSKVYMTTFAEGSDARLEKIVEGDSIRSVNEGEAFSAEMADKNAGYKIGNAKFSHPKGYAVVANNPLYTGPVQQDMLGLKETLEKRYFGESADGNDNICIQVIHNILDIEKILAEYITNAAYAVNNISGLDKDIIGFGKFSTVYTYDEFKDPEHHRAAFNNNDKLINAIKAQYDEFDNFLDNPRLGYFGQAFFSKEGRNYIINYGNECYDILALLSGLRHWVVHNNEEESRISRTWLYNLDKNLSGGSGSGSSGGSGTMAASDEVNLIESRTVVPLNTWVLISNFKVAYNILRRPDGTFNRHLAEYLDRKVTANANPVDGVFSFDVLIDRRINLLSRVYRPAYADQEQPPSILDLEKPVDGDIVPVILFFHGGSFAHSSANSAIYDTLCRRLVGLCKCVVVSVNYRRAPENPYPCAYDDGWIALNWVNSRSWLKSKKDSKVHIFLAGDSSGGNIAHNVALRAGESGIDVLGNILLNPMFGGNERTESEKSLDGKYFVTVRDRDWYWKAFLPEGEDREHPACNPFSPRGKSLEGVSFPKSLVVVAGLDLIRDWQLAYAEGLKKAGQEVKLMHLEKATVGFYLLPNNNHFHNVMDEISAFVNAECPKKKRKV",highest performance
3,"SEQ ID NO: 770: inducible system polypeptide, probably Table 20 (GID-GAI) (protein) MKRDHHHHHHQDKKTMMMNEEDDGNGMDELLAVLGYKVRSSEMADVAQKLEQLEVMMSNVQEDDLSQLATETVHYNPAELYTWLDSMLTDLNSGGSGSGSSGGSGTDNEYISTLNYLYDRITNELTNSFSKNSAANVNYIAETLGINPAEFAEQYFRFSIMKEQKNLGFNITKLREVMLDRKDMSEIRKNHKVFDSIRTKVYTMMDFVIYRYYIEEDAKVAAANKSLPDNEKSLSEKDIFVINLRGSFNDDQKDALYYDEANRIWRKLENIMHNIKEFRGNKTREYKKKDAPRLPRILPAGRDVSAFSKLMYALTMFLDGKEINDLLTTLINKFDNIQSFLKVMPLIGVNAKFVEEYAFFKDSAKIADELRLIKSFARMGEPIADARRAMYIDAIRILGTNLSYDELKALADTFSLDENGNKLKKGKHGMRNFIINNVISNKRFHYLIRYGDPAHLHEIAKNEAVVKFVLGRIADIQKKQGQNGKNQIDRYYETCIGKDKGKSVSEKVDALTKIITGMNYDQFDKKRSVIEDTGRENAEREKFKKIISLYLTVIYHILKNIVNINARYVIGFHCVERDAQLYKEKGYDINLKKLEEKGFSSVTKLCAGIDETAPDKRKDVEKEMAERAKESIDSLESANPKLYANYIKYSDEKKAEEFTRQINREKAKTALNAYLRNTKWNVIIREDLLRIDNKTCTLFRNKAVHLEVARYVHAYINDIAEVNSYFQLYHYIMQRIIMNERYEKSSGKVSEYFDAVNDEKKYNDRLLKLLCVPFGYCIPRFKNLSIEALFDRNEAAKFDKEKKKVSGNSGSGPKKKRKV",highest performance
